Columns and labels:
[1] = biological target: AtUBC8 (Arabidopsis thaliana ubiquitin conjugating enzyme E2 8), 6xHIS-tagged (Arabidopsis thaliana) (UniProt P35131); test: Delta G calculated for residues 74-82 of AtMUB3 within the co-crystal structure; unit not given
[2] = biological target: AtUBC8 (Arabidopsis thaliana ubiquitin conjugating enzyme E2 8), 6xHIS-tagged (Arabidopsis thaliana) (UniProt P35131); test: interface area calculated for residues 74-82 of AtMUB3 within the co-crystal structure
[3] = biological target: T1, biotinylated E2 (Ube2D3), from the E1/E2 Lite kit (LifeSensors) (UniProt P61077 1-147, limits assumed, biotinylated (site not stated); labelled with streptavidin-terbium in the assay); test: HTRF-FRET E2 activation assay; initial velocity against HsMUB concentration, one-site binding fit; IC50 equal to Ki under limiting E2
T1 construct: Bought kit reagent; also called biotinylated Ube2D3
T1 sequence (P61077 whole entry): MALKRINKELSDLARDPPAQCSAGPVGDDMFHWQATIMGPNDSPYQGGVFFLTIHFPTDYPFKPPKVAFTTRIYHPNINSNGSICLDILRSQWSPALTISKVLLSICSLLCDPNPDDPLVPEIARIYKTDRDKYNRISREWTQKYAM

[4] = biological target: T2, AtUBC8 (Arabidopsis thaliana ubiquitin conjugating enzyme E2 8), 6xHIS-tagged (Arabidopsis thaliana, UniProt P35131 1-148); test: Isothermal titration calorimetry (MicroCal iTC200), 110 uM AtMUB3 titrated into 8 uM AtUBC8, OneSites model; 25 mM HEPES pH 7.5, 200 mM NaCl, 1 mM TCEP
T2 construct: The crystal model holds residues 1-147/1-148; also called AtUBC08; not shown: 6xHIS tag
T2 sequence (P35131 whole entry, the tested form may be a part): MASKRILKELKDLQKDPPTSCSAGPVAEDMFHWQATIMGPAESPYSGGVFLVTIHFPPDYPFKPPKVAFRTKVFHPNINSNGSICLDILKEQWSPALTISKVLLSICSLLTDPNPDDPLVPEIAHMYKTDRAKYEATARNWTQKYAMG
Description: FIG. 13. […] Proteins were purified as described for crystallization and dialyzed extensively against a buffer containing 25 mM HEPES, pH 7.5, 200 mM NaCl, 1 mM TCEP. Data was processed with MicroCal Origin 7 software, and normalized against the dialysis buffer's heat of dilution.

Sequence of AtUBC8 (Arabidopsis thaliana ubiquitin conjugating enzyme E2 8), 6xHIS-tagged (Arabidopsis thaliana) (P35131 whole entry, the tested form may be a part): as above

AtMUB3 (74-82) (from UniProt Q9SW27 74-82)
Delta G [1]: -5
Surface area (Å^2) [2]: 288 Å^2

B1: HsMUB (Homo sapiens Membrane-anchored Ubiquitin-fold protein), C-terminal 6xHIS (other)
chain: MSSNVPADMINLRLILVSGKTKEFLFSPNDSASDIAKHVYDNWPMDWEEEQVSSPNILRLIYQGRFLHGNVTLGALKLPFGKTTVMHLVARETLPEPNSQGQRNREKTGESNCCVIL
notes: The coding region was cloned with the stop codon removed; also called Ubl3; human MUB; not shown: C-terminal 6xHIS tag from pET28b
Ki [3]: 220 nM

B2: AtMUB3 (Arabidopsis thaliana Membrane-anchored Ubiquitin-fold protein 3), 6xHIS-tagged (other, UniProt Q9SW27 1-118, looked up)
chain: MPEEESIDIKFRLYDGSDIGPFRYSAASTVDFLKQRVVSDWPKGKTVVPKGINEVKLISSGKILENNKTVGQCKTPFGDIAGGVIVMHVVVQPSLAKSKTEKKVDKAPKAVICTCTIL
notes: Expressed in E. coli, so not prenylated; An N-terminal 6xHIS AtMUB3 is also described; also called AtMUB3-His; not shown: C-terminal 6xHIS tag from pET28b
Ka [4]: 3.53e+06 M⁻¹
Kd [4]: 283 nM
ΔH [4]: -8.84 kcal/mol
ΔS [4]: 0.331 cal/mol/deg

Source: patent US20190085314A1 (SAINT LOUIS UNIVERSITY, published 2019)
